Test results from patent US20160159862A1 (PROTAGONIST THERAPEUTICS, published 2016).
Numbered stars: 1 amine (or outer) side, 2 acyl side, 3 side chain; on linkers, the order of the positions; unused ones are H or OH. Bridge positions count the residues as written; N and C are the ends. Square brackets hold non-standard residues; d marks the D form. Phe(4-OMe) = COc1ccc(C[C@H](N[*:1])C(=O)[*:2])cc1; Phe(4-COOH) = N[C@@H](Cc1ccc(C(=O)O)cc1)C(=O)O; Phe(4-tBu) = CC(C)(C)c1ccc(C[C@H](N)C(=O)O)cc1; Phe(2-CONH2) = NC(=O)c1ccccc1C[C@H](N)C(=O)O; Bip = N[C@@H](Cc1ccc(-c2ccccc2)cc1)C(=O)O; Phe(4-F) = N[C@@H](Cc1ccc(F)cc1)C(=O)O; 1Nal = N[C@@H](Cc1cccc2ccccc12)C(=O)O; NMeR = CN[C@@H](CCCNC(=N)N)C(=O)O; Tic = O=C(O)[C@@H]1Cc2ccccc2CN1; Pen = CC(C)(S)[C@H](N)C(=O)O; Dab = NCC[C@H](N)C(=O)O

What follows are binders tested against α4β7 integrin on human cells (human, UniProt P13612 34-1032; P26010 20-798) (assay: cell-based or functional assay).

α4β7 cell (Hu) IC50 [nM]	Binder
> 50	Ac-[Pen][NMeR]SDTL[Pen]W[Phe(4-COOH)][dK]-NH2 (disulfide 1-7 (inferred); also: dimer via DIG) [SEQ ID NO 105]
> 100	Ac-[Pen][NMeR]SDTL[Pen][1Nal][dF][dK]-NH2 (disulfide 1-7 (inferred); also: dimer via DIG) [SEQ ID NO 111]
> 100	Ac-[Pen][NMeR]SDTL[Pen]W[Tic][dK]-NH2 (disulfide 1-7 (inferred); also: dimer via DIG) [SEQ ID NO 109]
> 10	Ac-[Pen][NMeR]SDTL[Pen][Bip][dE][dK]-NH2 (disulfide 1-7 (inferred); also: dimer via DIG) [SEQ ID NO 108]
> 10	Ac-[Pen][NMeR]SDTL[Pen]W[dW][dK]-NH2 (disulfide 1-7 (inferred); also: dimer via DIG) [SEQ ID NO 110]
> 100	Ac-[Pen][NMeR]SDTL[Pen][Phe(3,4-Cl)][dE][dK]-NH2 (disulfide 1-7 (inferred); also: dimer via DIG) [SEQ ID NO 102]
> 25	Ac-[Pen][NMeR]SDTL[Pen][Phe(4-F)][dE][dK]-NH2 (disulfide 1-7 (inferred); also: dimer via DIG) [SEQ ID NO 107]
> 100	Ac-[Pen][NMeR]SDTL[Pen]W[dH][dK]-NH2 (disulfide 1-7 (inferred); also: dimer via DIG) [SEQ ID NO 104]
≤ 10	Ac-[Pen][NMeR]SDTL[Pen][Phe(4-tBu)][dE][dK]-NH2 (disulfide 1-7 (inferred); also: dimer via DIG) [SEQ ID NO 106]
> 25	Ac-[Pen][NMeR]SDTL[Pen][Phe(4-OMe)][dE][dK]-NH2 (disulfide 1-7 (inferred); also: dimer via DIG) [SEQ ID NO 103]

Second part, the binder before the results:

Binder	α4β7 cell (Hu) IC50 [nM]
Ac-[Pen][NMeR]SDTL[Pen][Phe(4-COOH)][dE][dK]-NH2 (disulfide 1-7 (inferred); also: dimer via DIG) [SEQ ID NO 100]	≤ 10
Ac-[Pen][NMeR]SDTL[Pen]W[dP]K-NH2 (disulfide 1-7 (inferred); also: homodimer linked by DIG) [SEQ ID NO 96]	> 50
Ac-[Pen][NMeR]SDTL[Pen][Phe(2,4-Cl)][dE][dK]-NH2 (disulfide 1-7 (inferred); also: dimer via DIG) [SEQ ID NO 101]	> 50
Ac-[Pen][NMeR]SDTL[Pen][Phe(2-CONH2)][dE][dK]-NH2 (disulfide 1-7 (inferred); also: homodimer linked by DIG) [SEQ ID NO 98]	> 50
Ac-[Pen][NMeR]SDTL[Pen]WE[Dab]-NH2 (disulfide 1-7 (inferred); also: homodimer linked by DIG) [SEQ ID NO 97]	≤ 10
Ac-[Pen][NMeR]SDTL[Pen][Phe(3-carbamoyl)][dE][dK]-NH2 (disulfide 1-7 (inferred); also: homodimer linked by DIG) [SEQ ID NO 99]	> 100
